Experiments:
[1] = molecular target: human recombinant adrenomedullin receptor (CRLR+RAMP3) (human)
[2] = molecular target: ADM (human or mouse, not stated for this row); assay: cell-based or functional assay

EC50 (read off the curve) [1] [nM] | Maximal inhibition of ADM bioactivity (ADM-Bioassay) (%) [2] [%] | Substance
1 |  | human adrenomedullin (hADM 1-52) (peptide)
 | 0 | Non specific mouse IgG (antibody)

Reference: patent publication US20130195875A1
